From patent US20140120095A1 (Boehringer Ingelheim, published 2014)

T1: cynomolgus DLL4 overexpressed on cells (cynomolgus, UniProt Q9NR61 27-685 (human entry))
T1 construct: also called cyno DII4; cDLL4
T1 chain: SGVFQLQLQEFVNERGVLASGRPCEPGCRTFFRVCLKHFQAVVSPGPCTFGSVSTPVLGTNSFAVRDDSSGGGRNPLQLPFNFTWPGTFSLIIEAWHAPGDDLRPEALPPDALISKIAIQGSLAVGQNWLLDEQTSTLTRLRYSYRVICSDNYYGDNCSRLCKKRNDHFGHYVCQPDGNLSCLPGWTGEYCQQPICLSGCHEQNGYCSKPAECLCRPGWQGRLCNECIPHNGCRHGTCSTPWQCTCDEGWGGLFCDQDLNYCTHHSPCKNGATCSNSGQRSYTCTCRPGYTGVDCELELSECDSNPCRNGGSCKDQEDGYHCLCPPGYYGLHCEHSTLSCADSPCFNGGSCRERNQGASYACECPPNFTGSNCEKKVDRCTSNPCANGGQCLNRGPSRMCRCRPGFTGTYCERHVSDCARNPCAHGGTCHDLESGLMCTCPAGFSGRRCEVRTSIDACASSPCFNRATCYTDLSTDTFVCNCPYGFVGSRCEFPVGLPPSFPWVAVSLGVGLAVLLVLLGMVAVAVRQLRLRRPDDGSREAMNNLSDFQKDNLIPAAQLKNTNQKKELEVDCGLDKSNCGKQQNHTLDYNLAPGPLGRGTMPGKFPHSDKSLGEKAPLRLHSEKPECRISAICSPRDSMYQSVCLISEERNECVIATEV

B1: VEGFDLLBII013 (bispecific antibody)
chain: EVQLVESGGGLVQTGDSLRLSCEVSGRTFSSYSMGWFRQAQGKEREFVVAISKGGYKYDSVSLEGRFTISKDNAKNTVYLQINSLKPEDTAVYYCASSRAYGSSRLRLADTYEYWGQGTQVTVSSGGGGSGGGGSGGGGCGGGGSGGGGSGGGGSGGGGSEVQLVESGGGLVQAGGSLRLSCAASGRTFSSYAMAWYRQAPGKEREYVAAIRWSGGTAYYADSVQGRFTISRDNAKNTVYLQMNSLKPEDTAVYYCANRAPDTRLAPYEYDHWGQGTQVTVSS
modifications: PEGylated 35gs, cys15 linker (PEG on the Cys at position 15 of the 35 Gly-Ser linker; size of the PEG not stated)
B2: VEGFDLLBII014 (bispecific antibody)
chain: EVQLVESGGGLVQTGDSLRLSCEVSGRTFSSYSMGWFRQAQGKEREFVVAISKGGYKYDSVSLEGRFTISKDNAKNTVYLQINSLKPEDTAVYYCASSRAYGSSRLRLADTYEYWGQGTQVTVSSGGGGSGGGSEVQLVESGGGLVQPGGSLRLSCVASGIRFMSMAWYRQAPGKHRELVARISSGGTTAYVDSVKGRFTISRDNSKNTVYLQMNSLKAEDTAVYYCNTFSSRPNPWGAGTQVTVSSGGGGSGGGGSGGGGCGGGGSGGGGSGGGGSGGGGSEVQLVESGGGLVQAGGSLRLSCAASGRTFSSYAMAWYRQAPGKEREYVAAIRWSGGTAYYADSVQGRFTISRDNAKNTVYLQMNSLKPEDTAVYYCANRAPDTRLAPYEYDHWGQGTQVTVSS
modifications: PEGylated 35gs, cys15 linker (PEG on the Cys at position 15 of the 35 Gly-Ser linker; size of the PEG not stated)
B3: VEGFDLLBII015 (bispecific antibody)
chain: EVQLVESGGGLVQTGDSLRLSCEVSGRTFSSYSMGWFRQAQGKEREFVVAISKGGYKYDSVSLEGRFTISKDNAKNTVYLQINSLKPEDTAVYYCASSRAYGSSRLRLADTYEYWGQGTQVTVSSGGGGSGGGGSGGGGCGGGGSGGGGSGGGGSGGGGSEVQLVESGGGLVQPGGSLRLSCVASGIRFMSMAWYRQAPGKHRELVARISSGGTTAYVDSVKGRFTISRDNSKNTVYLQMNSLKAEDTAVYYCNTFSSRPNPWGAGTQVTVSSGGGGSGGGGSGGGGSGGGGSGGGGSGGGGSGGGGSEVQLVESGGGLVQAGGSLRLSCAASGRTFSSYAMAWYRQAPGKEREYVAAIRWSGGTAYYADSVQGRFTISRDNAKNTVYLQMNSLKPEDTAVYYCANRAPDTRLAPYEYDHWGQGTQVTVSS
modifications: PEGylated 35gs, cys15 linker (PEG on the Cys at position 15 of the 35 Gly-Ser linker; size of the PEG not stated)
B4: DLLBII62C11 (VHH)
VHH: EVQLMESGGGLVQPGGSLRLSCVAAGFTFSNYYMSWVRQAPGKGLEWVSVISPDGSNTYYADTVKGRFTISRGNAKNTLFLQMTGLKSEDAAVYYCARGSGSWGVHGQGTQVTVSS
B5: DLLBII96C03 (VHH)
VHH: EVQLVESGGGLVQPGGSLRLSCAASGFTFGNYDMSWVRQAPGKGPEWVSAINSGGGDTYYADSVKGRFTISRDNAKNTLYLQMNSLKPEDTAVYYCATPRGWGPTGPHEYGYWGQGTQVTVSS
notes: also called 96C3

Key:
VEGF = VEGF (UniProt P15692-4 27-191, limits assumed); test: cell-based or functional assay
[1] = biological target: DII4-His (C-terminal His-tagged human DII4, amino acid 27-524) (human, UniProt Q9NR61 25-522); test: cell-based or functional assay
[2] = biological target: T2, mouse DLL4 overexpressed on cells (mouse, UniProt Q9JI71 27-686); test: competitive FMAT, hNotch1-Fc on CHO-mDLL4
T2 construct: whole, on cells; also called CHO-mDLL4; CHO-mDII4

recombinant human DLL4 [3] = biological target: T3, recombinant human DLL4 (human, UniProt Q9NR61 25-522); test: binding ELISA, coated rhDLL4
T3 construct: also called rhDLL4; hDLL4
Description: (§1) In order to determine cross-reactivity to mouse DII4 a binding ELISA is performed. […] Wells are blocked with a casein solution (1% in PBS). VHHs are applied as dilution series and binding is detected using a mouse anti-myc (Roche) and an anti-mouse-AP conjugate (Sigma, St Louis, Mo., USA) (FIG. 7 A-H). As reference, binding to human DII4 is measured.

human Jagged-1 = biological target: T4, human Jagged-1 (human, UniProt P78504 34-1067, limits assumed); test: binding ELISA on coated recombinant human Jagged-1, OD 405 nm
T4 construct: also called hJagged-1; hJAG1
Description: Absence of binding to homologous ligands human DLL1 and human Jagged-1 is assessed via solid phase binding assay (ELISA). In brief, human DLL1 (Alexis, San Diego, Calif., USA) and human Jagged-1 (Alexis, San Diego, Calif., USA) are coated overnight at 4° C. at 1 μg/mL in a 96-well MaxiSorp plate (Nunc, Wiesbaden, Germany). Wells are blocked with a casein solution (1% in PBS). VHHs are applied as dilution series and binding is detected using a mouse anti-myc (Roche) and an anti-mouse-AP conjugate (Sigma, St. Louis, Mo., USA).

[4] = biological target: T2, mouse DLL4 overexpressed on cells; test: FMAT, labelled hNotch1-Fc on CHO-mDLL4, periplasmic extract
Description: (§2) All calculations are based on the FL1_total signal which comprises the average of the fluorescence per well times the number of counts per well.

recombinant human DLL4 [5] = biological target: T3, recombinant human DLL4; test: SPR Biacore T100, hDLL4 on chip, VHH/Fab injected
Description: Kinetic analysis to determine the affinity of the DII4-VHH interaction is performed by Surface Plasmon Resonance (SPR) on a Biacore T100 instrument. […] Purified VHHs or Fab fragment are injected for 2 minutes at different concentrations (between 10 and 300 nM) and allowed to dissociate for 20 min at a flow rate of 45 μl/min. Between sample injections, the surfaces are regenerated with 10 mM glycine pH1.5 and 100 mM HCl. HBS-N (Hepes buffer pH7.4) is used as running buffer. If possible, data are evaluated by fitting a 1:1 interaction model (Langmuir binding) onto the binding curves. The affinity constant KD is calculated from resulting association and dissociation rate constants (kₐ) and […].

[6] = biological target: T2, mouse DLL4 overexpressed on cells; test: FACS titration on HEK293-mDLL4 cells, MCF
Description: (§3) In order to determine the cynomologus cross-reactivity of the VHHs, a FACS binding experiment is performed. Cynomolgus DII4 expressing HEK293 cells (transient or stable transfection) are used for a titration binding experiment of the VHHs. After a 30 minutes incubation on ice, all samples are washed and detection is performed by applying anti-c-myc˜Alexa647 (Santa Cruz Biotechnology, Santa Cruz, Calif., USA). Human and mouse DII4 overexpressing HEK293 cells are taken as reference. The mean MCF value is determined on the FACS Array and used for calculation of the EC₅₀ value (see FIG. 9 A-E).

[7] = biological target: T1, cynomolgus DLL4 overexpressed on cells; test: FACS titration on HEK293-cDLL4 cells, MCF
Description: as §3

[8] = biological target: T5, human DLL4 overexpressed on cells (human, UniProt Q9NR61 27-685); test: competitive FMAT, hNotch1-Fc on CHO-hDLL4
T5 construct: full length human DLL4 on CHO or HEK293 cells; also called CHO-hDLL4; CHO-hDII4

recombinant mouse DLL4 = biological target: T6, recombinant mouse DLL4 (mouse, UniProt Q9JI71 27-532); test: binding ELISA, coated rmDLL4
T6 construct: extracellular domain; also called rmDLL4; mDLL4
Description: as §1

[9] = biological target: T5, human DLL4 overexpressed on cells; test: FMAT, labelled hNotch1-Fc on CHO-hDLL4, periplasmic extract
Description: as §2

[10] = biological target: T5, human DLL4 overexpressed on cells; test: cell-based or functional assay
recombinant human DLL4 [11] = biological target: T3, recombinant human DLL4; test: competition AlphaScreen, biot-hDLL4/hNotch1-Fc
Description: In brief, 1 nM biotinylated human DII4 is captured on streptavidin-coated donor beads (20 μg/mL), while 0.4 nM of the receptor human Notch1 (as a Fc fusion protein) is captured on anti-human Fc VHH-coated acceptor beads (20 μg/mL). Both loaded beads are incubated together with a dilution range of the competing VHH (FIG. 4 A-E).

recombinant human DLL4 [12] = biological target: T3, recombinant human DLL4; test: competition ELISA, biot-hDLL4 to coated hNotch1-Fc
Description: Residual binding of biotinylated human DII4 is detected using horseradish peroxidase (HRP) conjugated extravidin (Sigma, St. Louis, Mo., USA) (FIG. 3 A-C). Human DII4 is biotinylated as described above.

Sequence of VEGF (P15692 other isoform, or with tags, fused parts or gaps limits assumed): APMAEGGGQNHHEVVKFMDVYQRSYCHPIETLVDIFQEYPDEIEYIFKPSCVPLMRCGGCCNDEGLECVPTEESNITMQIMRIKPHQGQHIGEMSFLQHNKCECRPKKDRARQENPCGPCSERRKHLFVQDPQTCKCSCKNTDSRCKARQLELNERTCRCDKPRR
T2 sequence (Q9JI71 27-686): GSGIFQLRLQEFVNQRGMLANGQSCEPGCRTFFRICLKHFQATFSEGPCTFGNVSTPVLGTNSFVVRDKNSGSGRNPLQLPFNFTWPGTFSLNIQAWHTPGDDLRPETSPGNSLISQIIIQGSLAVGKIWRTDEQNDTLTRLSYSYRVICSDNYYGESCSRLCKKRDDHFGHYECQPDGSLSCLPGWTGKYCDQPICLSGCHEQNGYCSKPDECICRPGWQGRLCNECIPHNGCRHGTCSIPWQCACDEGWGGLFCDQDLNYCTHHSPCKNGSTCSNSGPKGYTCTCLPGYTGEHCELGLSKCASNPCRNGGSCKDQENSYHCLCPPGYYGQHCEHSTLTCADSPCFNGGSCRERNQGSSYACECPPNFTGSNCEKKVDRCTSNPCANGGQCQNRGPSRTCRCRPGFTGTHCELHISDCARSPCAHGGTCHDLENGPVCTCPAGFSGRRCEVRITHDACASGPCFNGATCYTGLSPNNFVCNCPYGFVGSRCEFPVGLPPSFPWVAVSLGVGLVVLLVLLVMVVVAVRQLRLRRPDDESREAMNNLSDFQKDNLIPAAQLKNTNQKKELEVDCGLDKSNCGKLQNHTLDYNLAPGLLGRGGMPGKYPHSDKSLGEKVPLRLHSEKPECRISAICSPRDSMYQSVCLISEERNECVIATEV
T6 sequence (Q9JI71 27-532): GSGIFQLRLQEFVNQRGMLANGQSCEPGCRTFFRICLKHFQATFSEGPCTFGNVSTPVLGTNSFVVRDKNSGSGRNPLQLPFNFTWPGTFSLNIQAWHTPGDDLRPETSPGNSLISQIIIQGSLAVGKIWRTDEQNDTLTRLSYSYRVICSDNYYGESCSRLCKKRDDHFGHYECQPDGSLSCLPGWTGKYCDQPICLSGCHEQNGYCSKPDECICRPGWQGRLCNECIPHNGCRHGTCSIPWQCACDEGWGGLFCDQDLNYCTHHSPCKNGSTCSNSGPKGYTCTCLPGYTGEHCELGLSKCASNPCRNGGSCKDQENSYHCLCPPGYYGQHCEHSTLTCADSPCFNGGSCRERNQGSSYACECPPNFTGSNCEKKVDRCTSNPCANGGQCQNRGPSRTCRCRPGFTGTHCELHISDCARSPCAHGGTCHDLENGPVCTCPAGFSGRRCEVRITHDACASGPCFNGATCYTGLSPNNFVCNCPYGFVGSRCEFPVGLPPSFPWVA

Binder | % inhibition, VEGF HUVEC Erk phosphorylation assay, -HSA (VEGF) [%] | IC50 (nM), VEGF HUVEC Erk phosphorylation assay, -HSA (VEGF) [nM] | IC50 (nM), DII4-mediated HUVEC proliferation assay, -HSA [1] [nM] | IC50 [2] [nM] | EC50 (recombinant human DLL4 [3]) [nM] | binding result (human Jagged-1) | % inh [4] [%] | Kd (recombinant human DLL4 [5]) [nM] | koff (recombinant human DLL4 [5]) [s⁻¹] | kon (recombinant human DLL4 [5]) [M⁻¹ s⁻¹] | EC50 (read off the curve) [6] [nM] | binding result [7] | IC50 [8] [nM] | EC50 (recombinant mouse DLL4) [nM] | % inh [9] [%] | IC50, DLL4/Notch1 reporter assay [10] [nM] | IC50 (recombinant human DLL4 [11]) [nM] | IC50 (recombinant human DLL4 [12]) [nM]
B1 | 95 | 0.89 | 2.06 |  |  |  |  |  |  |  |  |  |  |  |  |  |  | 
B2 | 101 | 0.53 | 0.53 |  |  |  |  |  |  |  |  |  |  |  |  |  |  | 
B3 | 106 | 0.4 | 0.28 |  |  |  |  |  |  |  |  |  |  |  |  |  |  | 
B4 |  |  |  | 106 | 137 | no binding (tested: 5e-7 M) | 71 | 120 | 0.13 | 1.2e+06 | ~20 | no binding (tested: 1000 nM) | 172 | 13.1 | 74 | 4660 | 24.1 | 72
B5 |  |  |  | 28.8 | 86.5 | no binding (tested: 5e-7 M) | 83 | 310 | 0.048 | 160000 | ~20 | no binding (tested: 1000 nM) | 161 | 8.7 | 75 | 5160 |  | 38.4
